From patent US20250361274A1, “PEPTIDE AND PEPTIDE-CONTAINING AGENT” (PEPTIDREAM INC., priority 2022, published 2025)
Numbered stars: 1 amine (or outer) side, 2 acyl side, 3 side chain; on linkers, the order of the positions; unused ones are H or OH. Bridge positions count the residues as written; N and C are the ends. Square brackets hold non-standard residues; d marks the D form. Ends that are not written are not given here. * marks the point of attachment. KCOpipzaa = N6-(4-(carboxymethyl)piperazine-1-carbonyl)-L-lysine, O=C(NCCCC[C@H](N[*:1])C(=O)[*:2])N1CCN(CC(=O)[*:3])CC1; Cha4tH = (S)-2-amino-3-((1r,4S)-4-hydroxycyclohexyl)propanoic acid, O=C([C@H](C[C@H]1CC[C@H](O[*:3])CC1)N[*:1])[*:2]; X8 = 4‑(carboxymethyl)piperazine‑1‑carbonyl, O=C(O)CN1CCN(C(=O)*)CC1; Phe(4-(4-F-Ph)) = N[C@@H](Cc1ccc(-c2ccc(F)cc2)cc1)C(=O)O; 3Pal(6-Ph) = N[C@@H](Cc1ccc(-c2ccccc2)nc1)C(=O)O; Phe(4-COOH) = N[C@@H](Cc1ccc(C(=O)O)cc1)C(=O)O; Bip = N[C@@H](Cc1ccc(-c2ccccc2)cc1)C(=O)O; Phe(3-Me) = Cc1cccc(C[C@H](N)C(=O)O)c1; Hyp = O=C(O)[C@@H]1C[C@@H](O)CN1; NMeF = CN[C@@H](Cc1ccccc1)C(=O)O; hCit = NC(=O)NCCCC[C@H](N)C(=O)O; 4Pal = N[C@@H](Cc1ccncc1)C(=O)O; Tic = O=C(O)[C@@H]1Cc2ccccc2CN1; Aad = N[C@@H](CCCC(=O)O)C(=O)O; Cha = N[C@@H](CC1CCCCC1)C(=O)O; MeY = Methyl-L-tyrosine; βAla = NCCC(=O)O

Tests used:
[1] = target: T1, BMP4 (Homo sapiens, UniProt P12644); assay: BMP4 signal transduction inhibitory activity: SMAD1 phosphorylation by BMP4 stimulus, AlphaLISA SureFire, A549 cells; type: cell-based; settings: for aLISA BMP4: inhibition of SMAD1 phosphorylation by BMP4 stimulus, A549 cells; for aLIZA BMP4 (0.2 nM) % inh: peptide conc. in assay 0.02, 0.2, 2 nM, class symbols
T1 sequence (P12644 293-408): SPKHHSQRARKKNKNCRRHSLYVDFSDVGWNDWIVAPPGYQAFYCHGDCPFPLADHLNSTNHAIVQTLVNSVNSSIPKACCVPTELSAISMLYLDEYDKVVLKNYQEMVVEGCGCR

[2] = target: T2, BMP7 (Homo sapiens, UniProt P18075); assay: BMP7 signal transduction inhibitory activity: SMAD1 phosphorylation by BMP7 stimulus, A549 cells; type: cell-based; settings: for aLISA BMP7: inhibition of SMAD1 phosphorylation by BMP7 stimulus, A549 cells; for aLIZA BMP7 (10 nM) % inh: class symbols
T2 sequence (P18075 293-431): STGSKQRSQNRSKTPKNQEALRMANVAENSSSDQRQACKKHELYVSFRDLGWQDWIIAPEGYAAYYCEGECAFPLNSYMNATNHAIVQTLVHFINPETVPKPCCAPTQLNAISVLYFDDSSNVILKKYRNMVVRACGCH
Method in brief: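 SMAD1 phosphorylation readout in A549 cells stimulated with BMP7 (10 nM). Peptides were tested at three levels (e.g. 1/10/100, 10/100/1,000, 100/300/1,000, 10/30/90 nM) or at eight points, 1/3 steps, from 100 or 1,000 nM. Recombinant Noggin served as positive control at matching concentrations.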

[3] = peptides of Synthesis 2, classes A-C, ND
[4] = peptides of Synthesis 2, classes A-D, ND
[5] = BMP7 10 nM stimulus, peptide conc. in assay 100, 300, 1000 nM
[6] = AlphaLISA, class by peptide concentration zone
[7] = SMAD1 phosphorylation, BMP4 0.2 nM, peptide conc. in assay 0.2, 2, 20 nM
[8] = SMAD1 phosphorylation, BMP7 10 nM, peptide conc. in assay 1, 10, 100 nM
[9] = peptides of Synthesis 1, classes D-F, ND
[10] = peptides of Synthesis 1, classes E, F, ND
[11] = BMP4 0.2 nM stimulus, peptide conc. in assay 2, 20, 200 nM
[12] = BMP7 10 nM stimulus, peptide conc. in assay 10, 30, 90 nM

Substance: 114 (EKVYVKRFPYPFYFFSCG; not fully specified; MOD_RES 2 K represents N6-(4-(Carboxymethyl) piperazine-1-carbonyl)-L-lysine(KCOpipzaa); MOD_RES 6 K represents N6-(4-(Carboxymethyl) piperazine-1-carbonyl)-L-lysine(KCOpipzaa); MOD_RES 8 F represents (S)-3-(1,1'-Biphenyl-4-yl)-2-aminopropanoic acid(Bph); MOD_RES 12 F represents (S)-3-(1,1'-Biphenyl-4-yl)-2-aminopropanoic acid(Bph); MOD_RES 14 F represents (S)-4-(2-amino-2-carboxyethyl)benzoic aci) [compound 114]
- aLISA BMP4 [1, 3]: A (showed an inhibitory activity of 50% or more in a zone to which the peptide was added to in an amount of 0.2 nM)
- aLISA BMP7 [2, 4]: C (showed less than 50% of inhibitory activity in 10 nM-addition zone and showed 50% or more of inhibitory activity in 100 nM-addition zone)

Substance: 283 (ERV[Phe(4-COOH)]V[KCOpipzaa]R[3Pal(6-Ph)][KCOpipzaa]Y[Hyp][Bip][4Pal][Phe(4-COOH)][Phe(4-COOH)]SC[βAla]) [compound 283]
- aLIZA BMP4 (0.2 nM) % inh ([1]; BMP4 0.2 nM stimulus): B (showed less than 30% of inhibitory activity in 0.02 nM-addition zone and showed 30% or more of inhibitory activity in 0.2 nM-addition zone)
- aLIZA BMP7 (10 nM) % inh [2, 5]: H (showed less than 30% of inhibitory activity in 300 nM-addition zone and showed 30% or more of inhibitory activity in 1,000 nM-addition zone)

Substance: 94 ({CH2CO}-A[KCOpipzaa]VYV[KCOpipzaa]R[Bip]PYV[Bip]Y[Phe(4-COOH)][Phe(4-COOH)]SC[βAla][dE]-OH; thioether N-17; not fully specified) [compound 94]
- aLISA BMP4 [1, 3]: A (showed an inhibitory activity of 50% or more in a zone to which the peptide was added to in an amount of 0.2 nM)
- aLISA BMP7 [2, 4]: C (showed less than 50% of inhibitory activity in 10 nM-addition zone and showed 50% or more of inhibitory activity in 100 nM-addition zone)

Substance: 57 (Ac-ARVYVDK(X8)[Bip]PYP[Bip]Y[Phe(4-COOH)][Phe(4-COOH)]SCG-NH2; thioether (positions not given here); not fully specified (bridges)) [compound 57]
- aLISA BMP4 [1, 6]: C (showed an inhibitory activity of less than 50% in 0.2 nM-addition zone and showed an inhibitory activity of 50% or more in 2 nM-addition zone were defined as B or C)
- aLISA BMP7 [2, 6]: C (showed less than 50% of inhibitory activity in 10 nM-addition zone and showed 50% or more of inhibitory activity in 100 nM-addition zone)

Substance: 102 ({CH2CO}-E[KCOpipzaa]VYV[KCOpipzaa]R[Bip]SYV[Bip]Y[Phe(4-COOH)][Phe(4-COOH)]SC[βAla][dE]-OH; thioether N-17; not fully specified) [compound 102]
- aLISA BMP4 [1, 3]: C (showed an inhibitory activity of less than 50% in 0.2 nM-addition zone and showed an inhibitory activity of 50% or more in 2 nM-addition zone were defined as B or C)
- aLISA BMP7 [2, 4]: C (showed less than 50% of inhibitory activity in 10 nM-addition zone and showed 50% or more of inhibitory activity in 100 nM-addition zone)

Substance: 334 (FG[NMeF]G[Bip]GND[Cha]A[NMeF]LHCG-NH2; not fully specified (N-terminus, bridges)) [compound 334]
- aLISA BMP4 (0.2 nM) % inh [1, 7]: ND (the inhibitory activity was less than 30% at the maximum concentration evaluated)
- aLISA BMP7 (10 nM) % inh [2, 8]: D (showed less than 30% of inhibitory activity in 10 nM-addition zone and showed 30% or more of inhibitory activity in 100 nM-addition zone)

Substance: 135 ({CH2CO}-ERVYVD[hCit][Bip]PYV[Bip]Y[Phe(4-COOH)][Phe(4-COOH)]SCG-NH2; thioether N-17; not fully specified) [compound 135]
- aLISA BMP4 [1, 9]: E (showed less than 50% of inhibitory activity in 0.2 nM-addition zone and showed 50% or more of inhibitory activity in 2 nM-addition zone)
- aLISA BMP7 [2, 10]: E (showed 50% or more of inhibitory activity in a zone to which the peptide was added in an amount of 10 nM)

Substance: 41 ({CH2CO}-A[Tic]VYVDK[Bip]PYP[Bip]Y[Phe(4-COOH)][Phe(4-COOH)]SCG-NH2; thioether N-17) [compound 41]
- aLISA BMP4 [1, 6]: C (showed an inhibitory activity of less than 50% in 0.2 nM-addition zone and showed an inhibitory activity of 50% or more in 2 nM-addition zone were defined as B or C)
- aLISA BMP7 [2, 6]: ND (the inhibitory activity was less than 30% at the maximum concentration evaluated)

Substance: 48 (Ac-ARVYVDR[Bip]PYP[Bip]Y[Phe(4-COOH)][Phe(4-COOH)]SC[βAla]K-NH2; thioether (positions not given here); not fully specified (bridges)) [compound 48]
- aLISA BMP4 [1, 6]: C (showed an inhibitory activity of less than 50% in 0.2 nM-addition zone and showed an inhibitory activity of 50% or more in 2 nM-addition zone were defined as B or C)
- aLISA BMP7 [2, 6]: ND (the inhibitory activity was less than 30% at the maximum concentration evaluated)

Substance: 285 (E[KCOpipzaa]V[Phe(4-COOH)]V[KCOpipzaa]R[3Pal(6-Ph)][KCOpipzaa]Y[Hyp][Bip][4Pal][Phe(4-COOH)][Phe(4-COOH)]SC[βAla]) [compound 285]
- aLIZA BMP4 (0.2 nM) % inh ([1]; BMP4 0.2 nM stimulus): C (showed less than 30% of inhibitory activity in 0.2 nM-addition zone and showed 30% or more of inhibitory activity in 2 nM-addition zone)
- aLIZA BMP7 (10 nM) % inh [2, 5]: H (showed less than 30% of inhibitory activity in 300 nM-addition zone and showed 30% or more of inhibitory activity in 1,000 nM-addition zone)

Substance: 288 (ERV[Phe(4-COOH)][Cha4tH][KCOpipzaa]R[3Pal(6-Ph)][KCOpipzaa]Y[Hyp][Bip][4Pal][Phe(4-COOH)][Phe(4-COOH)]SCG-NH2; not fully specified (N-terminus, bridges); also: cyclic peptide, ring not given here) [compound 288]
- aLIZA BMP4 (0.2 nM) % inh ([1]; BMP4 0.2 nM stimulus): B (showed less than 30% of inhibitory activity in 0.02 nM-addition zone and showed 30% or more of inhibitory activity in 0.2 nM-addition zone)
- aLIZA BMP7 (10 nM) % inh [2, 5]: F (showed 30% or more of inhibitory activity in 100 nM-addition zone)

Substance: 381 (FG[NMeF]G[Phe(3-Me)]GDD[Cha]A[NMeF]LHCG-NH2; not fully specified) [compound 381]
- aLISA BMP4 (0.2 nM) % inh [1, 11]: ND (the inhibitory activity was less than 30% at the maximum concentration evaluated)
- aLISA BMP7 (10 nM) % inh [2, 12]: G (showed less than 30% of inhibitory activity in 30 nM-addition zone and showed 30% or more of inhibitory activity in 90 nM-addition zone)

Substance: 299 (ERV[Phe(4-COOH)]V[KCOpipzaa]R[3Pal(6-Ph)][KCOpipzaa]Y[Hyp][Phe(4-(4-F-Ph))]Y[Phe(4-COOH)][Phe(4-COOH)]SCG-NH2; not fully specified (N-terminus, bridges); also: cyclic peptide, ring closure not given here) [compound 299]
- aLIZA BMP4 (0.2 nM) % inh ([1]; BMP4 0.2 nM stimulus): C (showed less than 30% of inhibitory activity in 0.2 nM-addition zone and showed 30% or more of inhibitory activity in 2 nM-addition zone)
- aLIZA BMP7 (10 nM) % inh ([2]; BMP7 10 nM stimulus, peptide conc. in assay 10, 100, 1000 nM): ND (the inhibitory activity was less than 30% at the maximum concentration evaluated)

Substance: 340 (FG[NMeF]G[Bip]GDD[Cha]Q[NMeF]LHCG-NH2; not fully specified (N-terminus, bridges)) [compound 340]
- aLISA BMP4 (0.2 nM) % inh [1, 7]: ND (the inhibitory activity was less than 30% at the maximum concentration evaluated)
- aLISA BMP7 (10 nM) % inh [2, 8]: D (showed less than 30% of inhibitory activity in 10 nM-addition zone and showed 30% or more of inhibitory activity in 100 nM-addition zone)

Substance: 125 ({CH2CO}-E[Aad]VYVDR[Bip]PYV[Bip]Y[Phe(4-COOH)][Phe(4-COOH)]SCG-NH2; thioether N-17; not fully specified) [compound 125]
- aLISA BMP4 [1, 9]: E (showed less than 50% of inhibitory activity in 0.2 nM-addition zone and showed 50% or more of inhibitory activity in 2 nM-addition zone)
- aLISA BMP7 [2, 10]: E (showed 50% or more of inhibitory activity in a zone to which the peptide was added in an amount of 10 nM)

Substance: 387 (FG[MeY]G[Bip]GDD[Cha]A[NMeF]LHCG-NH2; not fully specified) [compound 387]
- aLISA BMP4 (0.2 nM) % inh [1, 11]: A (showed less than 30% of inhibitory activity in 2 nM-peptide-addition zone and showed 30% or more of inhibitory activity in 20 nM-addition zone)
- aLISA BMP7 (10 nM) % inh [2, 12]: F (showed less than 30% of inhibitory activity in 10 nM-addition zone and showed 30% or more of inhibitory activity in 30 nM-addition zone)
